Reference: the supplement of paper PMC10724198
± gives the standard deviation of the averaged measurements.

Assays:
Saccharomyces cerevisiae [1] = assay: protein stability index of tFT-peptide fusion (C-terminal peptide) (PSI (0-1 scale)); higher = more stable (slower turnover)
Method: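 MPS profiling in S. cerevisiae of the tFT-X12 degron library: putative degron peptides plus stable controls, 12 aa, fused to the C-terminus of a sfGFP-mCherry timer. Cells are FACS-sorted into 8 mCherry/sfGFP bins and deep-sequenced. PSI runs from 0 (unstable) to 1 (stable). Backgrounds are wild type, das1Δ and doa10Δ at 30 °C, and wild type, das1Δ, cdc34-1 and cdc53-1 at 37 °C; 2-3 technical replicates each.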

Saccharomyces cerevisiae [2] = assay: as above; conditions: genetic background: wild type; temperature: 30 C
[3] = genetic background: cdc34-1, temperature: 37 C
[4] = genetic background: cdc53-1, temperature: 37 C
[5] = genetic background: das1 deletion, temperature: 30 C
[6] = genetic background: das1 deletion, temperature: 37 C
[7] = genetic background: doa10 deletion, temperature: 30 C
[8] = genetic background: wild type, temperature: 30 C
[9] = genetic background: wild type, temperature: 37 C
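Further: PSI is a weighted mean of sequencing reads over stability bins, variants kept only with over 10 reads, mCherry proximal and sfGFP distal, peptide attached via GGGS linker.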

| Sequence | protein stability index (Saccharomyces cerevisiae [1]; [3]) | protein stability index (Saccharomyces cerevisiae [1]; [4]) | protein stability index (Saccharomyces cerevisiae [1]; [5]) | protein stability index (Saccharomyces cerevisiae [1]; [6]) | protein stability index (Saccharomyces cerevisiae [1]; [7]) | protein stability index (Saccharomyces cerevisiae [1]; [8]) | protein stability index (Saccharomyces cerevisiae [1]; [9]) | protein stability index (Saccharomyces cerevisiae [2]) |
| --- | --- | --- | --- | --- | --- | --- | --- | --- |
| LCFVSTWVWSVG | 0.498 ± 0.055 | 0.5203 ± 0.0015 | 0.395 ± 0.032 | 0.58 ± 0.0085 | 0.368 ± 0.016 | 0.401 ± 0.01 | 0.569 ± 0.007 | 0.474 ± 0.037 |
| LCWLCIRWSRVV | 0.368 ± 0.044 | 0.543 ± 0.023 | 0.443 ± 0.017 | 0.589 ± 0.013 | 0.0721 ± 0.015 | 0.0746 ± 0.012 | 0.085 ± 0.02 | 0.152 ± 0.0052 |
| LDIFRKLVIVLC | 0.0767 ± 0.013 | 0.0777 ± 0.02 | 0.18 ± 0.033 | 0.2628 ± 0.00073 | 0.102 ± 0.027 | 0.107 ± 0.025 | 0.0878 ± 0.0015 | 0.169 ± 0.07 |
| LEALRFTFYHFF | 0.683 ± 0.038 | 0.7891 ± 0.0068 | 0.615 ± 0.016 | 0.788 ± 0.029 | 0.203 ± 0.0091 | 0.222 ± 0.018 | 0.41 ± 0.014 | 0.34252 ± 7.1e-06 |
| LEGRVLRIFCVT | 0.496 ± 0.0051 | 0.593 ± 0.03 | 0.49 ± 0.0052 | 0.651 ± 0.018 | 0.191 ± 0.011 | 0.212 ± 0.024 | 0.37 ± 0.048 | 0.263 ± 0.057 |
| LFFRCVFRISFF | 0.274 ± 0.015 | 0.266 ± 0.0095 | 0.302 ± 0.03 | 0.387 ± 0.006 | 0.351 ± 0.027 | 0.254 ± 0.015 | 0.331 ± 0.0072 | 0.327 ± 0.0064 |
| LFGIDIVITYLL | 0.31 ± 0.011 | 0.459 ± 0.064 | 0.315 ± 0.036 | 0.441 ± 0.017 | 0.284 ± 0.015 | 0.304 ± 0.019 | 0.392 ± 0.026 | 0.398 ± 0.011 |
| LFILRPVVGVLN | 0.531 ± 0.034 | 0.53 ± 0.021 | 0.402 ± 0.035 | 0.555 ± 0.0077 | 0.368 ± 0.012 | 0.408 ± 0.016 | 0.528 ± 0.008 | 0.495 ± 0.053 |
| LFIWFVSSPFYC | 0.517 ± 0.025 | 0.5998 ± 0.0054 | 0.451 ± 0.017 | 0.63068 ± 0.0006 | 0.3134 ± 0.0029 | 0.343 ± 0.033 | 0.547 ± 0.01 | 0.452 ± 0.023 |
| LFIYSVCSYYYE | 0.31 ± 0.037 | 0.411 ± 0.053 | 0.269 ± 0.038 | 0.461 ± 0.049 | 0.227 ± 0.0051 | 0.283 ± 0.016 | 0.418 ± 0.068 | 0.349 ± 0.0058 |
| LFRLPSPLLFFL | 0.559 ± 0.0067 | 0.611 ± 0.029 | 0.558 ± 0.025 | 0.6643 ± 0.0018 | 0.4911 ± 0.0026 | 0.429 ± 0.025 | 0.53 ± 0.016 | 0.484 ± 0.028 |
| LFSAFFPLLFLS | 0.291 ± 0.022 | 0.353 ± 0.0036 | 0.436 ± 0.044 | 0.572 ± 0.02 | 0.107 ± 0.014 | 0.0848 ± 0.0096 | 0.0875 ± 0.00095 | 0.112 ± 0.013 |
| LFYATRLLFLCI | 0.415 ± 0.034 | 0.432 ± 0.028 | 0.411 ± 0.053 | 0.5185 ± 0.0026 | 0.34042 ± 0.00025 | 0.3 ± 0.023 | 0.4454 ± 0.002 | 0.367 ± 0.0039 |
| LGHSLVRFVYCF | 0.46 ± 0.023 | 0.498 ± 0.024 | 0.411 ± 0.025 | 0.538 ± 0.011 | 0.349 ± 0.0072 | 0.357 ± 0.029 | 0.468 ± 0.016 | 0.451 ± 0.0073 |
| LGVGVVPEFFVV | 0.659 ± 0.028 | 0.729 ± 0.014 | 0.592 ± 0.022 | 0.723 ± 0.023 | 0.332 ± 0.022 | 0.374 ± 0.022 | 0.527 ± 0.0086 | 0.464 ± 0.0065 |
| LLFVVGTGRWVG | 0.665 ± 0.022 | 0.736 ± 0.011 | 0.629 ± 0.029 | 0.744 ± 0.024 | 0.159 ± 0.0042 | 0.183 ± 0.033 | 0.482 ± 0.035 | 0.302 ± 0.046 |
| LLHSLILLEWVF | 0.148 ± 0.01 | 0.146 ± 0.02 | 0.19 ± 0.032 | 0.267 ± 0.011 | 0.145 ± 0.013 | 0.182 ± 0.02 | 0.238 ± 0.0042 | 0.272 ± 0.021 |
| LLIFGLLAVPSP | 0.585 ± 0.0093 | 0.587 ± 0.023 | 0.448 ± 0.028 | 0.569 ± 0.0093 | 0.443 ± 0.031 | 0.457 ± 0.013 | 0.542 ± 0.042 | 0.4771 ± 0.0012 |
| LLLAMLLWVSTM | 0.422 ± 0.0061 | 0.361 ± 0.11 | 0.305 ± 0.034 | 0.483 ± 0.02 | 0.2826 ± 0.0026 | 0.306 ± 0.021 | 0.455 ± 0.038 | 0.388 ± 0.0058 |
| LLLFLLLPPFPF | 0.543 ± 0.034 | 0.59 ± 0.006 | 0.449 ± 0.025 | 0.604 ± 0.026 | 0.437 ± 0.028 | 0.445 ± 0.019 | 0.57 ± 0.0068 | 0.504 ± 0.025 |
| LLLLLPLYLLPI | 0.24 ± 0.031 | 0.177 ± 0.037 | 0.31 ± 0.035 | 0.412 ± 0.021 | 0.553 ± 0.035 | 0.322 ± 0.017 | 0.368 ± 0.0062 | 0.372 ± 0.048 |
| LLLSLYFCFIFF | 0.207 ± 0.025 | 0.152 ± 0.004 | 0.245 ± 0.035 | 0.332 ± 0.018 | 0.337 ± 0.0086 | 0.226 ± 0.022 | 0.309 ± 0.033 | 0.329 ± 0.074 |
| LLLSSILLILSS | 0.357 ± 0.033 | 0.409 ± 0.0057 | 0.29 ± 0.018 | 0.465 ± 0.023 | 0.2369 ± 0.00081 | 0.272 ± 0.024 | 0.459 ± 0.063 | 0.34 ± 0.019 |
| LLPLLLFFSLLR | 0.223 ± 0.019 | 0.158 ± 0.02 | 0.34 ± 0.034 | 0.4062 ± 0.0013 | 0.601 ± 0.05 | 0.318 ± 0.034 | 0.373 ± 0.04 | 0.466 ± 0.03 |
| LLPLSLSLLLSV | 0.52 ± 0.015 | 0.541 ± 0.0062 | 0.432 ± 0.023 | 0.5638 ± 0.0033 | 0.414 ± 0.0064 | 0.429 ± 0.021 | 0.53568 ± 0.00041 | 0.453 ± 0.023 |
| LLSAVAHCYFIA | 0.595 ± 0.034 | 0.713 ± 0.0051 | 0.611 ± 0.01 | 0.738 ± 0.01 | 0.178 ± 0.013 | 0.191 ± 0.021 | 0.29 ± 0.02 | 0.297 ± 0.019 |
| LLSLTLALPLAA | 0.392 ± 0.0064 | 0.434 ± 0.014 | 0.337 ± 0.034 | 0.461 ± 0.0074 | 0.296 ± 0.0033 | 0.349 ± 0.022 | 0.4518 ± 0.0011 | 0.455 ± 0.047 |
| LLVFSSPPPAKF | 0.91 ± 0.036 | 0.901 ± 0.018 | 0.799 ± 0.055 | 0.833 ± 0.025 | 0.808 ± 0.023 | 0.769 ± 0.026 | 0.869 ± 0.024 | 0.81 ± 0.023 |
| LLVSCPLVLRFR | 0.426 ± 0.048 | 0.41 ± 0.02 | 0.437 ± 0.01 | 0.576 ± 0.058 | 0.6177 ± 0.0033 | 0.431 ± 0.028 | 0.511 ± 0.012 | 0.53 ± 0.048 |
| LLYSLVALGVCV | 0.329 ± 0.0041 | 0.314 ± 0.011 | 0.28 ± 0.032 | 0.403 ± 0.0012 | 0.24309 ± 0.00016 | 0.277 ± 0.019 | 0.3667 ± 0.0013 | 0.3805 ± 0.0005 |
